Results on 1 molecule are retold here after PMC7399497, “The Dual PDZ Domain from Postsynaptic Density Protein 95 Forms a Scaffold with Peptide Ligand” (Biophysical Journal, 2020).

Holding throughout (assay): ITC; 5 mM RRESEI in the syringe, PDZ1-2, PDZ1 or PDZ2 in the cell at nominally 0.13 mM; 25°C; 20 mM Tris-HCl, 150 mM NaCl pH 8.5; single class of sites; Kd and N could not be refined independently
Common to all, as to details: both partners purified

Test [1] has as its target T1, PSD-95 PDZ1-2 (dual PDZ domain of postsynaptic density protein 95) (human, UniProt P78352 55-249).
T1 construct: Gly-Pro left at the N-terminus after HRV 3C cleavage of the tag; PSD-95 (disks large homolog 4, SAP-90), human, residues 55-249 of UniProt P78352 (98-292 of P78352-2); PDZ1, linker and PDZ2; No Cys residues in the construct; also called apo-PDZ1-2; PDZ1-2 double domain; source: E. coli BL21(DE3), purified (Ni-NTA, HRV 3C tag cleavage, negative Ni-NTA, Superdex 200 SEC); not shown: His6, …

The next test deals with T2, PSD-95 PDZ1 domain (human, UniProt P78352 55-152).
T2 construct: Gly-Pro left at the N-terminus after HRV 3C cleavage of the tag; PSD-95, human, PDZ1, residues 55-152 of UniProt P78352 (98-195 of P78352-2); Glutathione was not used in the purification of the single domains; source: E. coli BL21(DE3), purified (Ni-NTA, HRV 3C tag cleavage, negative Ni-NTA, Superdex 200 SEC); not shown: His6, N-terminal, cleaved
T2 sequence (P78352 other isoform, or with tags, fused parts or gaps): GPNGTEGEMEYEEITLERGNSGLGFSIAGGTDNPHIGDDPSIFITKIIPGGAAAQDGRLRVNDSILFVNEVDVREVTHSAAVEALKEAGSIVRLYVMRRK

The next test deals with T3, PSD-95 PDZ2 domain (human, UniProt P78352 154-249).
T3 construct: Gly-Pro left at the N-terminus after HRV 3C cleavage of the tag; PSD-95, human, PDZ2, residues 154-249 of UniProt P78352 (197-292 of P78352-2); Glutathione was not used in the purification of the single domains; source: E. coli BL21(DE3), purified (Ni-NTA, HRV 3C tag cleavage, negative Ni-NTA, Superdex 200 SEC); not shown: His6, N-terminal, cleaved
T3 sequence (P78352 other isoform, or with tags, fused parts or gaps): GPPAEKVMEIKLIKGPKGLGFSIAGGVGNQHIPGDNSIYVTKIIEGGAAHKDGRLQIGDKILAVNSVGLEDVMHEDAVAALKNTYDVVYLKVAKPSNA

T1 sequence (P78352 other isoform, or with tags, fused parts or gaps): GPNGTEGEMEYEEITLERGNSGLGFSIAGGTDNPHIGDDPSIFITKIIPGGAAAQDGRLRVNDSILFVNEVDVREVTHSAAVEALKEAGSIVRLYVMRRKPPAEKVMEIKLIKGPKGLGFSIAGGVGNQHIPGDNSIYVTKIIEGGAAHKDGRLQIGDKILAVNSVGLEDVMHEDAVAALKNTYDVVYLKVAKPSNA

B1: RRESEI peptide (last six residues, 422-427, of Kir2.1) (peptide)
peptide: RRESEI
notes: C-terminal six residues (422-427) of the inwardly rectifying potassium channel Kir2.1; also called RRESEI ligand; ligand peptide; source: synthetic peptide, 98% purity; bought: Peptide Protein Research
What is called Kd is the constant that tells how readily two partners part at equilibrium. Read a high Kd as a looser complex. A word on the stoichiometry N: it is the number of molecules, sites or subunits per partner or assembly. On to B1, for which the Kd was determined as 90 ± 9 µM in test [1], 6 ± 6 µM in the test with PSD-95 PDZ1 domain and 60 ± 2 µM with PSD-95 PDZ2 domain. The results for the “stoichiometry N” value (in test [1]; with PSD-95 PDZ1 domain; with PSD-95 PDZ2 domain) were 0.2 ± 0.07, 0.61 ± 0.08 and 0.19 ± 0.06, respectively.
